Data published in the RNAGym collection of RNA variant scans (doi:10.1073/pnas.2313332121).
This sample holds only a part of the variants without activity.

B1: TPR 5TU (parent)
chain: GGAUCUUCUCGAUCUAACAAAAAAGACAAAUCUGCCACAAAGCUUGAGAGCAUCUUCGGAUGCAGAGGCGGCAGCCUUCGGUGGCGCGAUAGCGCCAACGUUCUCAACUAUGACACGCAAAACGCGUGCUCCGUUGAAUGGAGUUUAUCAUG

Variants of: B1
Test: polymerase ribozyme fitness, log enrichment relative to wild type (log ratio); higher = more active; in vitro selection for triplet polymerase activity
Summary of the method: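 One round of in vitro selection, in triplicate, was applied to PCR-built, transcribed mutant libraries of each subunit of a heterodimeric triplet polymerase ribozyme. The steps were annealing with a biotinylated primer, partner subunit and triplets, incubation frozen at −7 °C, gel excision of extended constructs, streptavidin-bead capture and RT-PCR. Fitness is the logarithm, base 2, of genotype enrichment over wild-type enrichment from inverse-variance-weighted replicate averages of Illumina-sequenced inputs and outputs, keeping genotypes with ≥10 input reads and ≥1 read per output.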

Variant	polymerase ribozyme fitness (log ratio)
U31C A49C G94U A121U	≤ -4.2
U33G C54U C96G A147U	-3.24
C32G C87A A115C	≤ -4.2
C32G G42U U55A U61A C85A C95A A107U	≤ -4.2
C32U G58C C63A	-3.84
G34C C75A G94A C108G U130A	≤ -4.2
U33G A49U A91G G152A	≤ -4.2
A30U C87U	-3.22
U31G A89G C95U	-1.41
G34A A66U C75U A137G	≤ -4.2
C32A A37C	≤ -4.2
U31C G34A C69G C85U U134C	-1.39
C32G G58A G84A A107G G124C U130G	≤ -4.2
C32U G59A	-1.99
U31C C51A C69U G81A A91U G124A U144G	≤ -4.2
U31A A106G	0.863
C32G C57U G80C G86C G152U	≤ -4.2
C32G G59C A66G U102A	≤ -4.2
G34A A60G G94A A147G A150C	≤ -4.2
C32U C87G A142U	≤ -4.2
U31C A52C C54U U139C G143U	≤ -4.2
C32G G50A U61A G62C G71A A91U G94C A138C	≤ -4.2
C32U C57U A121U C125U	-1.52
U31G C54G	-1.02

Variant	polymerase ribozyme fitness (log ratio)
A30G A52C U53C C93A G100C C132A	≤ -4.2
U33G G124A U134G	≤ -4.2
U31C A41C A91C C95G U139A G143C	≤ -4.2
A30C C63U A66C A73U C85A A91C U109G	≤ -4.2
U31A C54A G84U C85U	-2.6
C32U G46A C51G U53C G67C G86U U101G A138U	≤ -4.2
A30U G94C A121G	-3.43
C32G C87A A107G	≤ -4.2
U31G C79U U90G A106G C108A A137C	≤ -4.2
U31A U134A	-1.82
U31A C75G C76G C96A U145G	≤ -4.2
G34A U101A	-2.82
G34C G50U C54A G94U C99U	≤ -4.2
G34A A39U C96A U135C G140C	≤ -4.2
C32U A52G U55G G94C	-3.43
A30C G46U C95G U102G	≤ -4.2
G34C G88U U144A	≤ -4.2
C32G C87G C93U C99G U104A C123U	≤ -4.2
U33G C38A C93U A113U G136A A138U	≤ -4.2
U31G U53A A91G A122G	-3.62
U31C C69G C96U G117U C118G	-1.49
G34A C93A	-3.6
C32U G50U C95A C131U G143A U151C	≤ -4.2
A30U U56G U82C G84U C95U	≤ -4.2

Variant	polymerase ribozyme fitness (log ratio)
A30G G50C C76U C103G	≤ -4.2
A30U C51G A98U G136U	≤ -4.2
U31G G71U	≤ -4.2
U33C C36U U56A G84U U90C A110C G143C	≤ -4.2
G34A G46A C76G G136A U144A	≤ -4.2
A30U A52G G67U C132U	≤ -4.2
G34C G58A G68C G84A U90G A120G C125G	≤ -4.2
A30G U33G U82C C103A U144A	≤ -4.2
U31A G58A U61A G84U A89C	-3.15
C32U C96G	-1.58
U33G A41C C43U G50A G152U	-4.07
A30G A60U C85A C95A C96A C125U A150C	≤ -4.2
C32U A52C U55G C118U	≤ -4.2
C32U U55A C63U C118A	-3.08
A30U A40U C87G C103G G141A	-3.9
G34A A47U G50A C63U	-2.2
C32U G59C G84A	-1.81
A30U U56A G59A G94U C125A U127A U144A	≤ -4.2
U31G G94U A119U	-0.547
U31G A52C A64U C75G U90C C99U U134G	≤ -4.2
U33A U44G A107G A122G C132U	≤ -4.2
C32U G46U C103G U104G A107C G140C	≤ -4.2
C32U A52C U55G C57A	-3.11
C32G G50U C79G G88U G94C U101C C125A	≤ -4.2

Variant	polymerase ribozyme fitness (log ratio)
A30C U111G C129U G136U	≤ -4.2
C32A A37C C95U	≤ -4.2
U31A A97U	-0.316
C32U U82C	-1.74
A30G A39U A52G U55G	-4.08
U31C G70A A98G G124C	≤ -4.2
C32G A49C A52C G143U	≤ -4.2
G34U A47G C57G G68A U102A	≤ -4.2
C32G U56A C57A C114G	-4.19
U31C C116A	1.96
U31C A97G U135C U146C	-1.76
U31G G84A A89G	-0.747
U31C A52C U56A U82C A107U	≤ -4.2
C32U G68A C85A G94A U139A A147C	≤ -4.2
G34A U78G G86U A106G A115G A120G	≤ -4.2
U33A C43U A60U C93A C96U U151C G152A	≤ -4.2
U31G C32U C72A C123G G152A	≤ -4.2
C32A C87A	≤ -4.2
U31G C54U U109G A137G	-2.71
C32U U56A G58A G68A C76A C93A	≤ -4.2
A30C C79U A91G C114U G136C	≤ -4.2
C32A C85G	≤ -4.2
A30U U101G	-3.89
U31C U55A G86C	-2.47

Variant	polymerase ribozyme fitness (log ratio)
A30G A47G U56A G71C G117U A150U	≤ -4.2
G34C C51G C57U G83C	≤ -4.2
A30G U82G A122G U146G	-4.18
A30C C87A	≤ -4.2
C32U G74A C93U	-0.21
C32A G65A G88A C118U A120C A142G U144C	≤ -4.2
U33A G83A C95U U151C	≤ -4.2
U31A G58C G74C U139C U146A	≤ -4.2
A30C C87G U101C	≤ -4.2
C32G G59A G83A A98C A110G	-4.09
A30G A49C G88U A110G	≤ -4.2
C32U U44A G50U U78C G83U A120G	≤ -4.2
G34A C85A A91C C103G	≤ -4.2
U33G G58C A120G G133C	-3.81
U31A C38U C95U C96A	-1.16
U31A G70A C76A C96U	≤ -4.2
C32G G42A U77C G84U	≤ -4.2
U33C U56G C93U	≤ -4.2
A30G G74U C93A U102C U127G C129G U144G	≤ -4.2
A30U C36A C85U G92A C96A	≤ -4.2
U33A A115G U139G	≤ -4.2
U33G U53G C54U G58A C69U C85A C114U U151A	≤ -4.2
U31G C57A G136A G140A U146A	-3.1
U31C G34A U78C G83C U145G	≤ -4.2

Variant	polymerase ribozyme fitness (log ratio)
U33G C43U A49C U77G A91U U101A C105G	≤ -4.2
G34A G84A C95G	-0.00509
A30C C95G A119U C132U	≤ -4.2
C32A C36G A47G C72G A89G A91G	≤ -4.2
U33A C75G U78A U101A G152U	-4.02
A30U A52C U82A U101A G128A G136U G141C	≤ -4.2
U31G C85U	0.998
U31G C54A G88A G126A G141A	≤ -4.2
A30U U45A G94U C131G	≤ -4.2
C32G G58C G94U	-3.86
A30U G86U	≤ -4.2
U31G G59U A138U	≤ -4.2
U33A U56A G94A	≤ -4.2
U31G G50A C51U G62C G68U C95U U101G A106C	≤ -4.2
C32G U82G	≤ -4.2
A30U C35U G84A	-4.19
A30G C85U U134C	-3.93
C32U U55G	-1.52
C32U U55A	-1.62
A30U G50C	≤ -4.2
U31C A41G A66C G68C C95G	≤ -4.2
U31A A49C C99G C108G	≤ -4.2
U33A G58C G92A G136U	≤ -4.2
U31C U55A A97G	1.27

Variant	polymerase ribozyme fitness (log ratio)
A30U G46U U55G C79A U101G C108G C116U A119G G136U	≤ -4.2
A30G A66G C108G	≤ -4.2
U33C A37G C63A C87G U111G U151A	≤ -4.2
G34A C35A G83C A106U G133U A137G G141U	≤ -4.2
U31A C95G C125A	-1.34
U31C U56G C123A G136C	-2.61
U31A C43U U44G G62A G71A U90G A91C	≤ -4.2
C32G C93G	≤ -4.2
G34A U55A G70U G80U G86A	≤ -4.2
U31C U44A G94C C96G U102G U151C	≤ -4.2
U33G A49C C75G G92A U101G C105A	-4.15
A30C C75G U78G C95G	≤ -4.2
A30C C57U G81C C87G A97U U109G G141A	≤ -4.2
C32G A91C G117U A137U	≤ -4.2
U33G G50U C51G A52C C76A G92A C93A A98U	≤ -4.2
G34A G71C C105G G143U	≤ -4.2
A30G A49C C93G	≤ -4.2
U33G G68A C87G C108U A120C G136U	≤ -4.2
A30G C95G	-3.11
C32G A41C C75U	≤ -4.2
U33C A122G U127G	≤ -4.2
A30G C85U	-3.06
A30C U31G U82A G92C C103A U134G	≤ -4.2
